Where “and” joins values, the source holds several entries; their conditions need not be identical. Equal entries are not always repeated. Where two headings read alike, the source gives them in different places. Values belong to the substance of their own block, whether it stands above or below them.
How the values were obtained:
[1] = biological target: N-terminal His-tagged recombinant nebulin encompassing modules 160–164 (human) (UniProt P20929); assay: ELISA
headless desmin (human) = headless desmin (human) (UniProt P17661); assay: co-sedimentation
[2] = biological target: full-length wild-type desmin (human) (UniProt P17661); assay: co-sedimentation
tailless desmin (human) = tailless desmin (human) (UniProt P17661); assay: co-sedimentation
[3] = biological target: mutant desmin E245D (human) (UniProt P17661); assay: co-sedimentation
desmin rod (human) = desmin rod (human) (UniProt P17661); assay: co-sedimentation
[4] = biological target: N-terminal His-tagged recombinant nebulin encompassing modules 160–164 (human) (UniProt P20929); assay: ELISA; remark: listed apart in the source

sedimentation value (percent in the pellet, equimolar mixture) (headless desmin (human)): 57%
nebulin bound at later time points (percent of total protein) [2]: 35%
sedimentation value (percent in the pellet, equimolar mixture) (tailless desmin (human)): 29%
nebulin bound at later time points (percent of total protein) [3]: 20%
sedimentation value (percent in the pellet, equimolar mixture) (desmin rod (human)): 70%
Substance: N-terminal His-tagged recombinant nebulin encompassing modules 160–164 (from UniProt P20929 1-8525) (domain or fragment)

Kd [1]: 11 nM
Substance: mutant desmin T453I (from UniProt P17661 1-470) (natural protein)

Kd [1]: 8 nM
Kd [4]: 2 nM
Substance: mutant desmin E245D (from UniProt P17661 1-470) (natural protein)

More lines, now with the values behind:

Substance: mutant desmin S46Y (from UniProt P17661 1-470) (natural protein)
Kd [1]: 19 nM

Substance: full-length wild-type desmin (from UniProt P17661 1-470) (natural protein)
Kd [1]: 18 nM and 14 nM

Source: paper PMC3681697
